Tested on: HCT-15 tumor-bearing mice
Assay: In-vivo and ex-vivo fluorescence imaging of EGF-Cy5.5, C-probe, EGF-probe
Procedure: The biodistribution of the EGF-probe intravenously administered to mice having HCT-15, HT29, Lovo or HCT-8 tumors was evaluated. First of all, 6-week-old Balb/c-nude mice (Nara-Biotec, Gyeonggi-do, Korea) were prepared and each cell was subcutaneously inoculated into the nude mice at the right flank at a concentration of 2×10^6 cells/mouse to generate tumors. […] At 24 hours after the administration of the EGF-probe, the mouse was imaged using an IVIS fluorescence imaging system. […] IVIS fluorescence imaging was conducted at 24 hours after the administration. Major organs and tumors were obtained and imaged with an IVIS imaging system. The fluorescence intensity of the organs and tumors was analyzed using the Living Image 2.50 software. […] The tumor tissue sections were counter-stained with DAPI and visualized with a confocal microscope.

B1: EGF-Cy5.5 (conjugate, UniProt P01133 23-1207, looked up)
Pro-epidermal growth factor: PQHWSCPEGTLAGNGNSTCVGPAPFLIFSHGNSIFRIDTEGTNYEQLVVDAGVSVIMDFHYNEKRIYWVDLERQLLQRVFLNGSRQERVCNIEKNVSGMAINWINEEVIWSNQQEGIITVTDMKGNNSHILLSALKYPANVAVDPVERFIFWSSEVAGSLYRADLDGVGVKALLETSEKITAVSLDVLDKRLFWIQYNREGSNSLICSCDYDGGSVHISKHPTQHNLFAMSLFGDRIFYSTWKMKTIWIANKHTGKDMVRINLHSSFVPLGELKVVHPLAQPKAEDDTWEPEQKLCKLRKGNCSSTVCGQDLQSHLCMCAEGYALSRDRKYCEDVNECAFWNHGCTLGCKNTPGSYYCTCPVGFVLLPDGKRCHQLVSCPRNVSECSHDCVLTSEGPLCFCPEGSVLERDGKTCSGCSSPDNGGCSQLCVPLSPVSWECDCFPGYDLQLDEKSCAASGPQPFLLFANSQDIRHMHFDGTDYGTLLSQQMGMVYALDHDPVENKIYFAHTALKWIERANMDGSQRERLIEEGVDVPEGLAVDWIGRRFYWTDRGKSLIGRSDLNGKRSKIITKENISQPRGIAVHPMAKRLFWTDTGINPRIESSSLQGLGRLVIASSDLIWPSGITIDFLTDKLYWCDAKQSVIEMANLDGSKRRRLTQNDVGHPFAVAVFEDYVWFSDWAMPSVMRVNKRTGKDRVRLQGSMLKPSSLVVVHPLAKPGADPCLYQNGGCEHICKKRLGTAWCSCREGFMKASDGKTCLALDGHQLLAGGEVDLKNQVTPLDILSKTRVSEDNITESQHMLVAEIMVSDQDDCAPVGCSMYARCISEGEDATCQCLKGFAGDGKLCSDIDECEMGVPVCPPASSKCINTEGGYVCRCSEGYQGDGIHCLDIDECQLGEHSCGENASCTNTEGGYTCMCAGRLSEPGLICPDSTPPPHLREDDHHYSVRNSDSECPLSHDGYCLHDGVCMYIEALDKYACNCVVGYIGERCQYRDLKWWELRHAGHGQQQKVIVVAVCVVVLVMLLLLSLWGAHYYRTQKLLSKNPKNPYEESSRDVRSRRPADTEDGMSSCPQPWFVVIKEHQDLKNGGQPVAGEDGQAADGSMQPTSWRQEPQLCGMGTEQGCWIPVSSDKGSCPQVMERSFHMPSYGTQTLEGGVEKPHSLLSANPLWQQRALDPPHQMELTQ
modifications: Pro-epidermal growth factor Cy5.5 dye label
5 mg/kg intravenous, 24 hours, IVIS
  in-vivo fluorescence imaging (tumor and background signals): strong fluorescence signal at the tumor site but nonspecific background signals were observed throughout the body
cryosections, confocal
  fluorescence of tumor tissue sections: observed clearly
